Read-outs that look alike come from different tables or passages of the source.
Legend:
Test in all cases: ITC
[1] = biological target: AP2 µ2 C-terminal subdomain (C-µ2), residues 160-435 of rat µ2 (rat) (UniProt P84092)
[2] = biological target: T1, AP2 µ2 C-terminal subdomain (C-µ2), residues 160-435 of rat µ2 (rat, UniProt P84092 160-435)
T1 sequence: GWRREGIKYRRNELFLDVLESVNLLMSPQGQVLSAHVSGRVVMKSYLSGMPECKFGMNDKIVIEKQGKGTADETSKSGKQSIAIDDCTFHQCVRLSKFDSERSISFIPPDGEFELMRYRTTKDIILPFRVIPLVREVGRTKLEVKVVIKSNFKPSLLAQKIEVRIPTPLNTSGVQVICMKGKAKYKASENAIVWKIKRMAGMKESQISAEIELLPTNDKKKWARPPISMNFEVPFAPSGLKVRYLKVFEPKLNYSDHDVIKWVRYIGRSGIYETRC

[3] = biological target: T1, AP2 µ2 C-terminal subdomain (C-µ2), …; remark: listed apart in the source

## EGFR peptide (FYRLMS)
[1]
  Kd: 20 µM

## integrin α4 peptide (QYKSILQE)
[1]
  Kd: 72 µM

## WKLGFFKRKYEKMTKNPDEIDETTELSS [α2 integrin peptide (WKLGFFKRKYEKMTKNPDEIDETTELSS)]
[2]
  Kd: ~50 µM

## SYTRFS [transferrin receptor peptide (SYTRFS)]
[3]
  Kd: ~15 µM

## DYQRLN [TGN38 peptide (DYQRLN)]
[3]
  Kd: ~4 µM

## YKLGFFKRSLPYGTAMEKAQLKPPATSDA [α5-integrin peptide (YKLGFFKRSLPYGTAMEKAQLKPPATSDA)]
[2]
  Kd: > 300 µM

## KLLMIIHDRREFAKFEKEKMNAKWDTGENPIYKSAVTTVVNPKYEGK [β1-integrin peptide]
[2]
  Kd: > 300 µM

Reference: PMC5130146 (Nature structural & molecular biology, 2016)
